Experimental findings from paper doi:10.1101/2023.10.23.563687 are described below.

The target of the assay is full-length BCL6 construct overexpressed in HEK293T cells (ternary complex nanoBRET) (UniProt P41182).

Sequence of full-length CDK9 construct overexpressed in HEK293T cells (ternary complex nanoBRET) (P50750 whole entry, one chain of several): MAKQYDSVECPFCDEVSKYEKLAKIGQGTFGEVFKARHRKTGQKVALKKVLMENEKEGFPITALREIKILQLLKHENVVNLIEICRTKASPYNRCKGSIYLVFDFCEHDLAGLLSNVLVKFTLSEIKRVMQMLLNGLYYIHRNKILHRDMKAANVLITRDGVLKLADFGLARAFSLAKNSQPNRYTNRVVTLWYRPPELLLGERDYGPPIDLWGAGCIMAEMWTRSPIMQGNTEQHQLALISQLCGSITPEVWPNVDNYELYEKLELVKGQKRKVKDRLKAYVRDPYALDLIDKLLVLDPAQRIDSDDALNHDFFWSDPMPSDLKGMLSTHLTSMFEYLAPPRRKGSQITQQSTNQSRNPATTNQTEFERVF

The substance “full-length CDK9 construct overexpressed in HEK293T cells (ternary complex nanoBRET) (from UniProt P50750 1-372) (enzyme)” registered a cell killing of SUDHL5 DLBCL cells by CDK-TCIP1, 72-hour cell viability assay of 6.9 nM.
